Assay results reported in article PMC10333884 (2023).
Non-standard residues stand in square brackets, D forms with d. No end group written: not given here. pS = N[C@@H](COP(=O)(O)O)C(=O)O

T1: Clathrin N‐terminal domain (NTD) (human, UniProt Q00610 1-364)
T1 chain: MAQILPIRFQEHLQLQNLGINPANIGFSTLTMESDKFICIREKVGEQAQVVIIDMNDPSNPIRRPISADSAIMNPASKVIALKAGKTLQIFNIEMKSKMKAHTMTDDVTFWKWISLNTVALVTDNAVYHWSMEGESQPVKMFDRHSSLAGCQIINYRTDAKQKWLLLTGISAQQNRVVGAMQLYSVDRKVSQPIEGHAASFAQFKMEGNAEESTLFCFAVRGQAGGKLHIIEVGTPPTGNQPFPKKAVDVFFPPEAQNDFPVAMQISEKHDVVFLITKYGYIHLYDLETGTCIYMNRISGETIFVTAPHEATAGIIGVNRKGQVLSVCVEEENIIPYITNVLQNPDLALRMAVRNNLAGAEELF

T2: TSG101 UEV (human, UniProt Q99816 2-145)
T2 chain: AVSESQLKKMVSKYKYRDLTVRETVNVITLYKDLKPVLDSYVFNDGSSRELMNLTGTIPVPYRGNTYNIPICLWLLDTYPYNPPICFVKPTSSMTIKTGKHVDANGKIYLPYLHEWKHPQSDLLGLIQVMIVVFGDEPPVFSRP


Molecular target: T1, Clathrin N‐terminal domain (NTD)
Assay: FP

| IC50 [µM] | Binder |
| --- | --- |
| 318 | GGNLITFSPLQPGEF [HURP_(832–846), wild‐type] |
| 11 | YRHISFGGNLITF[pS]PLQPGEF [pS839 HURP_(826–846) peptide] |
| 11 | GGNLITF[pS]PLQPGEF [pS839 HURP_(832–846)] |
| 70 | GGNLITFEPLQPGEF [HURP_(832–846), phosphomimetic (E)] |

Molecular target: T2, TSG101 UEV
Assay: FP

| IC50 [µM] | Binder |
| --- | --- |
| 34 | QSIAREPSAPSIPTP [PDCD6IP_(711–725), wild‐type] |
| 29 | HSGNVTPTAPPYLQES [PIP4P2_(17–32), wild‐type] |
| 465 | NGCSSPTAPLSPMSP [GJA1_(269–283), wild‐type] |

What follows are binders tested against SNX27 PDZ (human, UniProt Q96L92 43-136) (assay: FP).

| IC50 [µM] | Binder |
| --- | --- |
| 1000 | NLLLERDT[pS]FTVCPD [CDC25C_(30–44), phosphorylated (pS)] |
| 1800 | NLLLERDTEFTVCPD [CDC25C_(30–44), phosphomimetic (E)] |
| 1300 | GMVSSTSFNGG [DAXX_(606–616), wild‐type] |
| 210 | NLLLERDTSFTVCPD [CDC25C_(30–44), wild‐type] |

Each binder was assayed against MAP1LC3A (human) (assay: FP).

| IC50 [µM] | Binder |
| --- | --- |
| 17 | KKQLKRFSTEEFVLL [ATG4C_(444–458), wild‐type] |
| 11 | KKQLKRFETEEFVLL [ATG4C_(444–458), phosphomimetic (E)] |
| 5.5 | KKQLKRF[pS]TEEFVLL [ATG4C_(444–458), phosphorylated (pS)] |
